Measured values reported in the supplement of paper PMC6757056.
± gives the standard deviation of the averaged measurements.

B1: library; a variant is named by its letters at N, in order (parent)
chain: GCUGUCACCGAGAAACUGUGAAGUAUAUCUUAAACCUGGGCACUUAAAAGAUAUAUGGAGUUAGUAGUGCAACCUGCUCGGUCUGAUGAGUCCNNNNNNGGACGAAACAGC

Columns and labels:
[1] = variants of: B1; test: normalized RNA/DNA level without ligand (relative to sTRSVctl = 100) (log10 (% of sTRSVctl)); HEK293T; ligand: cyclic di-GMP (c-di-GMP-II aptamer); higher = less ribozyme self-cleavage, higher mRNA level; details: reporter: mCherry (pCS4076), ligand present: no
Method in brief: (§1)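 Only sequences with at least 100 DNA reads were analyzed, from HEK293T cells transfected with 4 µg per 6-well well of ribozyme switch library plasmids 72 h before RNA extraction with EDTA. Any ligand was added 1 h before transfection. RNA level was defined as RNA over DNA reads, normalized to a spiked-in non-cleaving sequence or to the top sequences, then scaled and log-transformed. The top set was 25 sequences, and the scaling was ×100 followed by log10.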

[2] = variants of: B1; test: normalized RNA/DNA level with ligand (relative to sTRSVctl = 100) (log10 (% of sTRSVctl)); HEK293T; ligand: cyclic di-GMP (c-di-GMP-II aptamer); ligand concentration (+) RNA-Seq: 1 mM; higher = less ribozyme self-cleavage, higher mRNA level; details: reporter: mCherry (pCS4076), ligand present: yes
Method in brief: as §1

Variant	normalized RNA/DNA level without ligand (log10) [1]	normalized RNA/DNA level with ligand (log10) [2]
CAGGAG	1.64 ± 0.091	1.79 ± 0.098
AUUUUU	1.76 ± 0.03	1.89 ± 0.075
AGCCUG	1.6624 ± 0.00017	1.81 ± 0.15
CGCGCU	1.702 ± 0.016	1.83 ± 0.11
CCCACC	1.728 ± 0.007	1.84 ± 0.097
CGGCUG	1.74 ± 0.087	1.87 ± 0.12
UUCCGG	1.84 ± 0.045	1.93 ± 0.043
ACUUGG	1.59 ± 0.048	1.75 ± 0.13
ACUUGC	1.69 ± 0.029	1.83 ± 0.084
UAGCCU	1.73 ± 0.03	1.86 ± 0.043
AUUGAG	1.57 ± 0.018	1.7 ± 0.13
GAGCCG	1.823 ± 0.0091	1.9 ± 0.11
UCUUCA	1.75 ± 0.057	1.8 ± 0.1
GGCUGC	1.7019 ± 0.0016	1.83 ± 0.11
GGCUGU	1.68 ± 0.05	1.79 ± 0.18
AUAGUC	1.675 ± 0.0068	1.83 ± 0.088
UCAUAG	1.65 ± 0.02	1.77 ± 0.17
GGCAGU	1.76 ± 0.071	1.849 ± 0.0031
GUCAGU	1.63 ± 0.022	1.77 ± 0.15
CUGAGC	1.76 ± 0.033	1.87 ± 0.12
AUGGGC	1.626 ± 0.015	1.79 ± 0.16
AUACGC	1.658 ± 0.014	1.81 ± 0.14
GGGAGU	1.67 ± 0.071	1.72 ± 0.16
AUGUCG	1.64 ± 0.035	1.76 ± 0.087

Variant	normalized RNA/DNA level without ligand (log10) [1]	normalized RNA/DNA level with ligand (log10) [2]
UUUUAA	1.725 ± 0.014	1.86 ± 0.11
AGGCCC	1.86 ± 0.05	1.95 ± 0.1
CCAAUU	1.58 ± 0.06	1.72 ± 0.086
UCCUGA	1.69 ± 0.048	1.85 ± 0.1
UAUGUU	1.65 ± 0.008	1.79 ± 0.15
ACCCCC	1.82 ± 0.064	1.91 ± 0.14
AUGGAG	1.55 ± 0.1	1.68 ± 0.084
UCGCUA	1.46 ± 0.026	1.7 ± 0.047
UACAGC	1.619 ± 0.0088	1.77 ± 0.11
UAGUCU	1.707 ± 0.015	1.84 ± 0.053
GAGUCG	1.83 ± 0.031	1.88 ± 0.092
AAUUAG	1.6 ± 0.029	1.76 ± 0.11
UUGUUA	1.64 ± 0.022	1.81 ± 0.12
GCGCUU	1.61 ± 0.043	1.78 ± 0.13
ACUAAC	1.607 ± 0.015	1.76 ± 0.15
GCGGUG	1.6984 ± 0.00046	1.79 ± 0.13
ACUUAA	1.49 ± 0.085	1.68 ± 0.13
GCACCU	1.6643 ± 0.00076	1.85 ± 0.14
GCACCA	1.586 ± 0.0036	1.75 ± 0.11
CCUUGU	1.75 ± 0.058	1.86 ± 0.1
UGACAU	1.62 ± 0.074	1.81 ± 0.075
AGCUAG	1.54 ± 0.026	1.72 ± 0.16
UGUCGC	1.76 ± 0.049	1.85 ± 0.15
CCGAAU	1.48 ± 0.13	1.68 ± 0.11

Variant	normalized RNA/DNA level without ligand (log10) [1]	normalized RNA/DNA level with ligand (log10) [2]
CCGAGG	1.624 ± 0.0052	1.8 ± 0.071
CCAACA	1.53 ± 0.029	1.72 ± 0.13
CGAACU	1.48 ± 0.18	1.72 ± 0.042
GUAUUA	1.578 ± 0.0077	1.75 ± 0.1
GCGGGA	1.62 ± 0.078	1.72 ± 0.068
UUACUU	1.68 ± 0.022	1.83 ± 0.11
CCCGAU	1.64 ± 0.027	1.83 ± 0.12
UCUUUC	1.755 ± 0.014	1.86 ± 0.089
UCUCGA	1.8 ± 0.036	1.86 ± 0.15
AUGCCG	1.7503 ± 0.0015	1.86 ± 0.13
AUGCCU	1.74 ± 0.044	1.87 ± 0.14
AAUCGC	1.74 ± 0.018	1.89 ± 0.12
UCCUUG	1.74 ± 0.036	1.86 ± 0.082
UACGCC	1.77 ± 0.021	1.87 ± 0.12
UACGCG	1.81 ± 0.04	1.9 ± 0.11
AUGAGC	1.62 ± 0.066	1.8 ± 0.082
GCAACU	1.582 ± 0.0092	1.77 ± 0.13
GCGAGU	1.53 ± 0.071	1.69 ± 0.11
AGUCUU	1.726 ± 0.0047	1.84 ± 0.11
UUGGUU	1.7 ± 0.027	1.84 ± 0.097
ACCACU	1.61 ± 0.062	1.82 ± 0.087
AUGCUC	1.74 ± 0.052	1.85 ± 0.046
UUGAAC	1.691 ± 0.0046	1.82 ± 0.11
AUCUCA	1.666 ± 0.0097	1.78 ± 0.16

Variant	normalized RNA/DNA level without ligand (log10) [1]	normalized RNA/DNA level with ligand (log10) [2]
UCAUCG	1.79 ± 0.023	1.88 ± 0.086
UGCAAG	1.777 ± 0.0085	1.9 ± 0.088
GUCCGC	1.84 ± 0.03	1.93 ± 0.071
CGCUGG	1.67 ± 0.039	1.78 ± 0.086
AUGCGU	1.679 ± 0.011	1.79 ± 0.099
UCCCCU	1.78 ± 0.033	1.9 ± 0.13
GUCCAG	1.76 ± 0.07	1.83 ± 0.1
GUCCAC	1.6752 ± 0.00073	1.82 ± 0.054
CGAUGG	1.67 ± 0.07	1.81 ± 0.073
GUAACA	1.68 ± 0.035	1.81 ± 0.11
ACCAGA	1.39 ± 0.11	1.6 ± 0.13
CUGGGC	1.733 ± 0.0023	1.88 ± 0.09
CAUCAG	1.69 ± 0.044	1.76 ± 0.13
ACUAGU	1.674 ± 0.011	1.8 ± 0.065
AACGGU	1.52 ± 0.049	1.77 ± 0.1
CGUUCG	1.81 ± 0.095	1.9 ± 0.16
CUAUAG	1.679 ± 0.012	1.84 ± 0.15
UCACAA	1.547 ± 0.011	1.72 ± 0.087
UCACAC	1.7 ± 0.0024	1.81 ± 0.13
AGUUCG	1.69 ± 0.021	1.79 ± 0.11
GGGUCA	1.828 ± 0.013	1.91 ± 0.16
GGGUCC	1.91 ± 0.098	1.95 ± 0.14
UCGCAC	1.697 ± 0.015	1.86 ± 0.084
AAAUGG	1.5 ± 0.092	1.68 ± 0.076

Variant	normalized RNA/DNA level without ligand (log10) [1]	normalized RNA/DNA level with ligand (log10) [2]
GUAUGU	1.6045 ± 0.00047	1.77 ± 0.087
GAUCUA	1.67 ± 0.032	1.81 ± 0.097
ACCGCC	1.74 ± 0.057	1.89 ± 0.095
CUUCUG	1.78 ± 0.061	1.85 ± 0.057
GUGACA	1.665 ± 0.0036	1.79 ± 0.069
UUUGCA	1.78 ± 0.018	1.85 ± 0.1
UUGUAA	1.685 ± 0.015	1.86 ± 0.15
ACCCGA	1.54 ± 0.039	1.73 ± 0.13
CGAGGU	1.72 ± 0.038	1.84 ± 0.096
GACUCG	1.78 ± 0.081	1.87 ± 0.074
UGACGU	1.57 ± 0.12	1.74 ± 0.13
UCAACG	1.77 ± 0.024	1.89 ± 0.096
UACCUG	1.724 ± 0.0039	1.87 ± 0.091
CCGUAC	1.62 ± 0.027	1.75 ± 0.11
UUUACU	1.75 ± 0.031	1.88 ± 0.092
UUUACG	1.83 ± 0.057	1.91 ± 0.12
CUAGGA	1.54 ± 0.055	1.72 ± 0.099
UAUGAG	1.653 ± 0.0081	1.82 ± 0.12
CAGGUC	1.76 ± 0.021	1.84 ± 0.094
UCCGUG	1.73 ± 0.033	1.85 ± 0.11
